One protein from US20110151530 can be followed below.

This data set relates to IcmBmp, icmB gene product of Methylibium petroleiphilum (subunit of hydroxyisobutyryl-CoA mutase).

B1: IcmAmp, icmA gene product of Methylibium petroleiphilum (subunit of hydroxyisobutyryl-CoA mutase) (enzyme)
chain: MTWLEPQIKSQLQSERKDWEANEVGAFLKKAPERKEQFHTIGDFPVQRTYTAADIADTPLEDIGLPGRYPFTRGPYPTMYRSRTWTMRQIAGFGTGEDTNKRFKYLIAQGQTGISTDFDMPTLMGYDSDHPMSDGEVGREGVAIDTLADMEALLADIDLEKISVSFTINPSAWILLAMYVALGEKRGYDLNKLSGTVQADILKEYMAQKEYIYPIAPSVRIVRDIITYSAKNLKRYNPINISGYHISEAGSSPLQEAAFTLANLITYVNEVTETGMHVDEFAPRLAFFFVSQGDFFEEVAKFRALRRCYAKIMKERFGAKNPESMRLRFHCQTAAATLTKPQYMVNVVRTSLQALSAVLGGAQSLHTNGYDEAFAIPTEDAMKMALRTQQIIAEESGVADVIDPLGGSYYVEALTTEYEKKIFEILEEVEKRGGTIKLIEQGWFQKQIADFAYETALRKQSGQKPVIGVNRFVENEEDVKIEIHPYDNTTAERQISRTRRVRAERDEAKVQAMLDQLVAVAKDESQNLMPLTIELVKAGATMGDIVEKLKGIWGTYRETPVF
In turn, B1 returned an Activity of purified enzyme (mUI/mg): Hydroxyisobutyryl-CoA mutase (with 3-Hydroxybutyryl-CoA 1 mM in aerobic conditions) of 2 mUI/mg, an Activity of purified enzyme (mUI/mg): Hydroxyisobutyryl-CoA mutase (with 3-Hydroxybutyryl-CoA 1 mM in anaerobic conditions) of 46 mUI/mg and an Activity of purified enzyme (mUI/mg): Hydroxyisobutyryl-CoA mutase (with 3-Hydroxybutyryl-CoA 10 mM in anaerobic conditions) of 223 mUI/mg.
